Columns and labels:
HLA-A*02:02 = experiment: IEDB peptide-MHC binding, purified MHC/competitive/radioactivity; filed as Kd, often an IC50 or EC50 that approximates it; ≥ and ≤ were set here for values at or beyond the usual limits of such assays
HLA-A*02:03 = experiment: as above
HLA-A*02:06 = experiment: as above
HLA-B*44:02 = experiment: as above
HLA-B*44:03 = experiment: as above
HLA-A*03:01 [1] = experiment: IEDB peptide-MHC binding, purified MHC/direct/fluorescence; filed as Kd, often an IC50 or EC50 that approximates it; ≥ and ≤ were set here for values at or beyond the usual limits of such assays; conditions: source organism: Cryptosporidium parvum
HLA-A*03:01 [2] = experiment: IEDB peptide-MHC binding, purified MHC/competitive/radioactivity; filed as Kd, often an IC50 or EC50 that approximates it; ≥ and ≤ were set here for values at or beyond the usual limits of such assays; conditions: source organism: Vaccinia virus WR
HLA-A*11:01 = experiment: as above; conditions: source organism: Vaccinia virus WR
HLA-A*29:02 = experiment: as above; conditions: source organism: Vaccinia virus WR
HLA-A*31:01 = experiment: as above; conditions: source organism: Vaccinia virus WR
HLA-A*33:01 = experiment: as above; conditions: source organism: Vaccinia virus WR
HLA-A*68:01 = experiment: as above; conditions: source organism: Vaccinia virus WR
HLA-A*23:01 = experiment: as above; conditions: source organism: Dengue virus 2 Jamaica/1409/1983
HLA-A*24:02 = experiment: as above; conditions: source organism: Dengue virus 2 Jamaica/1409/1983
HLA-A*26:01 = experiment: as above
HLA-A*30:02 = experiment: as above
HLA-A*01:01 = experiment: as above; conditions: source organism: Dengue virus 4 Philippines/H241/1956
[3] = source organism: Vaccinia virus WR
[4] = source organism: Dengue virus 2 Jamaica/1409/1983
[5] = source organism: Dengue virus 1 Brazil/97-11/1997
[6] = source organism: Dengue virus 4 Philippines/H241/1956
[7] = source organism: SARS coronavirus Tor2
[8] = source organism: Lassa virus Josiah
[9] = source organism: Mammarenavirus lassaense

AVANCVRNL
Kd (HLA-A*02:02; [3]): 66.3 nM | Kd (HLA-A*02:03; [3]): 114 nM | Kd (HLA-A*02:06; [3]): 1380 nM

NTGMGMYYPT
Kd (HLA-A*02:02; [3]): ≥ 23400 nM | Kd (HLA-A*02:03; [3]): ≥ 21000 nM | Kd (HLA-A*02:06; [3]): 11400 nM

QEHETSWHYD
Kd (HLA-B*44:02; [4]): 158 nM | Kd (HLA-B*44:03; [4]): 746 nM

MELKYSWKT
Kd (HLA-B*44:03; source organism: Dengue virus 3 Martinique/1243/1999): 343 nM

FFAFGHMIK
Kd (HLA-A*03:01 [1]): ≥ 20000 nM

IVNNQESNKY
Kd (HLA-A*03:01 [2]): 487 nM | Kd (HLA-A*11:01): 1650 nM | Kd (HLA-A*29:02): ≥ 32600 nM | Kd (HLA-A*31:01): ≥ 52900 nM | Kd (HLA-A*33:01): ≥ 70000 nM | Kd (HLA-A*68:01): 7540 nM

MYFHRRDLRL
Kd (HLA-A*23:01): 57.3 nM | Kd (HLA-A*24:02): 149 nM

MVTLYLGVM
Kd (HLA-A*26:01; [5]): 163 nM

ETLMLLALIA
Kd (HLA-A*26:01; [5]): ≥ 33600 nM

SEMGANFRAG
Kd (HLA-B*44:02; [6]): 95 nM | Kd (HLA-B*44:03; [6]): 868 nM

KKGKVVGLY
Kd (HLA-A*30:02; source organism: Dengue virus 2 Peru/IQT2913/1996): 85.3 nM

IQYRQQLEL
Kd (HLA-A*02:02; [3]): 511 nM | Kd (HLA-A*02:03; [3]): 44.9 nM | Kd (HLA-A*02:06; [3]): 41.3 nM

IVSHLRASTT
Kd (HLA-A*02:02; [3]): 139 nM | Kd (HLA-A*02:03; [3]): 111 nM | Kd (HLA-A*02:06; [3]): 173 nM

DTSEVHWNY
Kd (HLA-A*01:01): 111 nM | Kd (HLA-A*26:01; [6]): 41.6 nM | Kd (HLA-A*30:02; [6]): 3860 nM

FSCGLSLQDY
Kd (HLA-A*03:01 [2]): 977 nM | Kd (HLA-A*11:01): 269 nM | Kd (HLA-A*29:02): ≥ 71400 nM | Kd (HLA-A*31:01): 2310 nM | Kd (HLA-A*33:01): 9250 nM | Kd (HLA-A*68:01): 263 nM

SIDHCSSFIV
Kd (HLA-A*02:02; [3]): 172 nM | Kd (HLA-A*02:03; [3]): 772 nM | Kd (HLA-A*02:06; [3]): 30.3 nM

KEVALLRTYC
Kd (HLA-B*44:03; [6]): 128 nM

AMWLLLLSI
Kd (HLA-A*02:02; [7]): 357 nM | Kd (HLA-A*02:03; [7]): 205 nM | Kd (HLA-A*02:06; [7]): 268 nM

LNQAVNNLV
Kd (HLA-A*02:02; [8]): 510 nM | Kd (HLA-A*02:03; [8]): 3350 nM | Kd (HLA-A*02:06; [8]): 13600 nM

LLWDYMCIS
Kd (HLA-A*02:02; [9]): 146 nM | Kd (HLA-A*02:03; [9]): 596 nM | Kd (HLA-A*02:06; [9]): 408 nM

From the Immune Epitope Database (IEDB)
